PMC7806768

Target: R.CcoLI(D225N) mutant (Campylobacter coli)
Assay: SEC; Superdex 200 HR 10/30; samples 2.3 uM; 10 mM MES pH 6.0, 200 mM NaCl, 1 mM TCEP; size estimated against marker proteins (aldolase, conalbumin, chymotrypsinogen A, ribonuclease A)

In the case of R.CcoLI(D225N) mutant (enzyme), the stoichiometry N is reported as 2.
